Measured values published in US20230357447A1 (JANUX THERAPEUTICS, published 2023).

Columns and labels:
[1] = molecular target: T1, Anti-CD28 scFv (VH-linker 1-VL) (biotinylated for capture on neutravidin plates); assay: phage ELISA, scFv captured on plate;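 note: crude clonal phage supernatants added to wells preincubated with soluble CD28 or with blocking buffer only, bound phage read out by HRP-linked anti-M13 antibody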
Method: Clonal phage were harvested as crude supernatants and screened via standard enzyme linked immunosorbent assays (ELISAs). […] Prior to the addition of clonal phage, wells were incubated with blocking buffer and CD28 soluble protein or blocking buffer alone. Without washing or aspirating, clonal phage supernatants were then added to the wells and incubated for a short time. Wells were then washed followed by detection of bound phage using a horse radish peroxidase conjugated anti-M13 antibody.

[2] = molecular target: T1, Anti-CD28 scFv (VH-linker 1-VL); assay: phage ELISA, scFv captured on plate, competitor soluble CD28;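 note: crude clonal phage supernatants added to wells pre-incubated with soluble CD28 or with blocking buffer only as control, bound phage read out with HRP-linked anti-M13 antibody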

T1 sequence (scFv, as listed by the source): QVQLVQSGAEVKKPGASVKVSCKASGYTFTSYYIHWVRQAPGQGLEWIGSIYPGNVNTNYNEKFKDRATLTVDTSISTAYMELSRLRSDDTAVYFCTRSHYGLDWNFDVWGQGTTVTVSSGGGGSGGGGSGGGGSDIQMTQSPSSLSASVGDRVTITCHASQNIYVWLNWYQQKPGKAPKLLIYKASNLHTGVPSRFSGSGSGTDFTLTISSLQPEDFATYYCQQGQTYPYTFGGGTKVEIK

## MDWCPRYLWFECFS [Phage-117]
[1]
  Phage binding ELISA CD28 scFv signal: 2.46
[2]
  Phage binding ELISA CD28 scFv signal in presence of CD28: 0.235

## MDWCPRDLWDQCYA [Phage-122]
[1]
  Phage binding ELISA CD28 scFv signal: 2.41
[2]
  Phage binding ELISA CD28 scFv signal in presence of CD28: 0.201

## MDWCPRFLWNECFN [Phage-126]
[1]
  Phage binding ELISA CD28 scFv signal: 2.4
[2]
  Phage binding ELISA CD28 scFv signal in presence of CD28: 0.503

## MDWCPRYLWHMCYS [Phage-119]
[1]
  Phage binding ELISA CD28 scFv signal: 2.42
[2]
  Phage binding ELISA CD28 scFv signal in presence of CD28: 1.17

## MDWCPVSLWHVCFY [Phage-125]
[1]
  Phage binding ELISA CD28 scFv signal: 2.4
[2]
  Phage binding ELISA CD28 scFv signal in presence of CD28: 0.409

## MDWCPRALWNECFA [Phage-127]
[1]
  Phage binding ELISA CD28 scFv signal: 2.38
[2]
  Phage binding ELISA CD28 scFv signal in presence of CD28: 0.375

## MDWCPIHLWNECFA [Phage-123]
[1]
  Phage binding ELISA CD28 scFv signal: 2.4
[2]
  Phage binding ELISA CD28 scFv signal in presence of CD28: 0.203

## MDWCPRDLWHACFS [Phage-120]
[1]
  Phage binding ELISA CD28 scFv signal: 2.41
[2]
  Phage binding ELISA CD28 scFv signal in presence of CD28: 0.173

## MDWCPRDLWIECFF [Phage-128]
[1]
  Phage binding ELISA CD28 scFv signal: 2.37
[2]
  Phage binding ELISA CD28 scFv signal in presence of CD28: 0.137

## MDWCPRDLWHVCFF [Phage-121]
[1]
  Phage binding ELISA CD28 scFv signal: 2.41
[2]
  Phage binding ELISA CD28 scFv signal in presence of CD28: 0.268

## LDWCPRDLWHVCFF [Phage-178]
[1]
  Phage binding ELISA CD28 scFv signal: 0.61
[2]
  Phage binding ELISA CD28 scFv signal in presence of CD28: 0.105

## MDWCPRPLWDMCFF [Phage-124]
[1]
  Phage binding ELISA CD28 scFv signal: 2.4
[2]
  Phage binding ELISA CD28 scFv signal in presence of CD28: 0.138

## MDWCPRHLWDECFF [Phage-118]
[1]
  Phage binding ELISA CD28 scFv signal: 2.46
[2]
  Phage binding ELISA CD28 scFv signal in presence of CD28: 0.663

## MDWCPRHLWDLCFA [Phage-166]
[1]
  Phage binding ELISA CD28 scFv signal: 0.925
[2]
  Phage binding ELISA CD28 scFv signal in presence of CD28: 0.096

## MDWCPRFLWDECFF [Phage-133]
[1]
  Phage binding ELISA CD28 scFv signal: 2.28
[2]
  Phage binding ELISA CD28 scFv signal in presence of CD28: 0.246

## MDWCPRHLWDLCFF [Phage-153]
[1]
  Phage binding ELISA CD28 scFv signal: 1.4
[2]
  Phage binding ELISA CD28 scFv signal in presence of CD28: 0.182

## MDWCPRHLWDQCFA [Phage-161]
[1]
  Phage binding ELISA CD28 scFv signal: 1.12
[2]
  Phage binding ELISA CD28 scFv signal in presence of CD28: 0.144

## MDWCPRNMWTVCFL [Phage-211]
[1]
  Phage binding ELISA CD28 scFv signal: 1.12
